One series concerns the target T1, bPrP peptide 16 (bovine, UniProt P10279 108-119).
T1 chain: GQWNKPSKPKTN
Briefly: microchip electrophoresis.

For a further series, the target named is T2, bPrP peptide 1 (bovine, UniProt P10279 25-36).
T2 chain: KKRPKPGGGWNT
Nature of the series: microchip electrophoresis.

As to GGAGGAGGAGGA (structured_RNA) [R12], the binding result with bPrP peptide 16 and with bPrP peptide 1 was “binds” in each case.

These data come from paper PMC2764455.
